Experimental findings from the supplement of paper PMC9112550, “Optimization of the antimicrobial peptide Bac7 by deep mutational scanning” (BMC Biology, 2022) are described below.

The test system of the series is Escherichia coli TOP10. In words: shrunken log2 fold change of peptide-encoding DNA abundance (4.5 h post-induction vs induction); higher = less antimicrobial activity (less host growth inhibition). The following applies: time post-induction: 4.5 h; library: site-saturation at positions 5, 18, 19, 20.
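Further: peptides expressed intracellularly from a pBAD plasmid library in pooled LB shake-flask culture, induced with 0.3% L-arabinose, DNA abundance read by NGS, three biological replicates, DESeq2 with apeglm shrinkage.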

Turning to RRIRQRPPRLPRPRPRPVAIPRP, the “shrunken log2 fold change” value was -0.367.

RRIRGRPPRLPRPRPRPAIMPRP: the “shrunken log2 fold change” value came to 1. Then RRIRGRPPRLPRPRPRPSQTPRP, with 1.08; and RRIRLRPPRLPRPRPRPWILPRP, with -0.0709; and RRIRFRPPRLPRPRPRPQTIPRP, with -0.485. Consider RRIRFRPPRLPRPRPRPCTVPRP, for which the “shrunken log2 fold change” value is -0.318. Take RRIRDRPPRLPRPRPRPGFDPRP: the “shrunken log2 fold change” value came out at 0.926. For RRIRPRPPRLPRPRPRPAKRPRP, the “shrunken log2 fold change” value is 0.035.

Regarding RRIRPRPPRLPRPRPRPCRKPRP, the “shrunken log2 fold change” value was -0.134. RRIRGRPPRLPRPRPRPNNFPRP: the “shrunken log2 fold change” value worked out at 0.291. Then RRIRARPPRLPRPRPRPGGDPRP, with 0.604; and RRIRPRPPRLPRPRPRPADKPRP, with 0.0949; and RRIRCRPPRLPRPRPRPAIGPRP, with -0.135. The figure for RRIRGRPPRLPRPRPRPFSVPRP is 0.429; for RRIRKRPPRLPRPRPRPYQLPRP it is -0.0193; for RRIRPRPPRLPRPRPRPKCKPRP it is -0.207.

As to RRIRMRPPRLPRPRPRPLADPRP, the “shrunken log2 fold change” value worked out at 3.11. RRIRIRPPRLPRPRPRPGRMPRP: the “shrunken log2 fold change” value worked out at 0.198. As to RRIRCRPPRLPRPRPRPWTHPRP, the “shrunken log2 fold change” value is -0.325. The figure for RRIRCRPPRLPRPRPRPATFPRP is -0.331; for RRIRRRPPRLPRPRPRPFWCPRP it is -0.18; for RRIRYRPPRLPRPRPRPVSNPRP it is -1.07. With RRIRIRPPRLPRPRPRPGSGPRP, the “shrunken log2 fold change” value is 0.166. As for RRIRNRPPRLPRPRPRPQTVPRP, the “shrunken log2 fold change” value is -0.0578. RRIRYRPPRLPRPRPRPDLNPRP: the “shrunken log2 fold change” value is -0.0755. Regarding RRIRSRPPRLPRPRPRPTSRPRP, the “shrunken log2 fold change” value is -0.0504. Then RRIRRRPPRLPRPRPRPQDMPRP, with 0.0973; and RRIRCRPPRLPRPRPRPQYRPRP, with -2.05. In the case of RRIRMRPPRLPRPRPRPIMKPRP, the “shrunken log2 fold change” value is -0.24. The figure for RRIRTRPPRLPRPRPRPWDSPRP is -0.00804; for RRIRDRPPRLPRPRPRPLFYPRP it is -0.258; for RRIRMRPPRLPRPRPRPDNMPRP it is 0.0905. For RRIRKRPPRLPRPRPRPTWIPRP, the “shrunken log2 fold change” value was found to be 0.00938. For the sequence RRIRGRPPRLPRPRPRPQHKPRP, the “shrunken log2 fold change” value is -0.00366. For the sequence RRIRKRPPRLPRPRPRPVAYPRP, the “shrunken log2 fold change” value is -0.109.

As for RRIRDRPPRLPRPRPRPWIRPRP, the “shrunken log2 fold change” value was -0.24.

RRIRKRPPRLPRPRPRPGVFPRP: the “shrunken log2 fold change” value amounted to 0.417. Consider RRIRKRPPRLPRPRPRPHERPRP, for which the “shrunken log2 fold change” value was determined as 0.231.

Turning to RRIRMRPPRLPRPRPRPVTSPRP, the “shrunken log2 fold change” value is -0.0914. For the sequence RRIRCRPPRLPRPRPRPSQNPRP, the “shrunken log2 fold change” value is -0.141. Turning to RRIRCRPPRLPRPRPRPVIMPRP, the “shrunken log2 fold change” value is -0.604. In the case of RRIRPRPPRLPRPRPRPMTYPRP, the “shrunken log2 fold change” value is -0.437. With RRIRMRPPRLPRPRPRPPSYPRP, the “shrunken log2 fold change” value is 0.358. As to RRIRARPPRLPRPRPRPSIQPRP, the “shrunken log2 fold change” value was -0.119.

For the sequence RRIRPRPPRLPRPRPRPIKGPRP, the “shrunken log2 fold change” value turned out to be 0.0468.

Regarding RRIRRRPPRLPRPRPRPAGGPRP, the “shrunken log2 fold change” value was 0.327. On to RRIRRRPPRLPRPRPRPTPNPRP, for which the “shrunken log2 fold change” value is 0.945. Regarding RRIRDRPPRLPRPRPRPEPVPRP, the “shrunken log2 fold change” value is 0.576. For RRIRERPPRLPRPRPRPFAHPRP, the “shrunken log2 fold change” value came to 0.117.

As to RRIRSRPPRLPRPRPRPAKEPRP, the “shrunken log2 fold change” value amounted to 0.0106.
